# Assay results taken from article PMC2275104 (Nucleic Acids Research, 2008).
# Assays:
# [1] = target: M. thermautotrophicus MCM (MTH1770) (Methanothermobacter thermautotrophicus, UniProt O27798); conditions: labelled compound; Hepes-NaOH pH 7.5, 5 mM MgCl2, 60°C
# MCM E182R = target: T1, MCM E182R (Methanothermobacter thermautotrophicus, UniProt O27798 1-666, E182R); test: fluorescence anisotropy
# T1 sequence: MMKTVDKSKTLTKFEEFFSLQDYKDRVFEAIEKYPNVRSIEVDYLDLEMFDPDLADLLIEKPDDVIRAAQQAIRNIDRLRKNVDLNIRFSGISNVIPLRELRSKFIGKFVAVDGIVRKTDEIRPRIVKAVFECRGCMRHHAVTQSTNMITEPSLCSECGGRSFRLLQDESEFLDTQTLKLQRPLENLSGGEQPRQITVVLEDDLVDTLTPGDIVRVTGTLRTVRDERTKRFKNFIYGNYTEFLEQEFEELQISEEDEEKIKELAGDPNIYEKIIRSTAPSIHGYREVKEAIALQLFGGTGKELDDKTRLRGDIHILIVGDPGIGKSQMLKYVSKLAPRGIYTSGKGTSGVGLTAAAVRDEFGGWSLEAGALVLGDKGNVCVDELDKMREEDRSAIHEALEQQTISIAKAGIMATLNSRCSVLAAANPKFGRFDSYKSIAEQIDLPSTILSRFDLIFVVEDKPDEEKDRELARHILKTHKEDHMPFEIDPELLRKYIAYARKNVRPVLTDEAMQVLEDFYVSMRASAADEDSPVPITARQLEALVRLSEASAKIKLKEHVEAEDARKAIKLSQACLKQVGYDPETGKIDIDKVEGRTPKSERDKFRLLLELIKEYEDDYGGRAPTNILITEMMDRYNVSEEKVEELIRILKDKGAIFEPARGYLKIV
# MCM P193G = target: T2, MCM P193G (Methanothermobacter thermautotrophicus, UniProt O27798 1-666, P193G); test: fluorescence anisotropy
# T2 sequence: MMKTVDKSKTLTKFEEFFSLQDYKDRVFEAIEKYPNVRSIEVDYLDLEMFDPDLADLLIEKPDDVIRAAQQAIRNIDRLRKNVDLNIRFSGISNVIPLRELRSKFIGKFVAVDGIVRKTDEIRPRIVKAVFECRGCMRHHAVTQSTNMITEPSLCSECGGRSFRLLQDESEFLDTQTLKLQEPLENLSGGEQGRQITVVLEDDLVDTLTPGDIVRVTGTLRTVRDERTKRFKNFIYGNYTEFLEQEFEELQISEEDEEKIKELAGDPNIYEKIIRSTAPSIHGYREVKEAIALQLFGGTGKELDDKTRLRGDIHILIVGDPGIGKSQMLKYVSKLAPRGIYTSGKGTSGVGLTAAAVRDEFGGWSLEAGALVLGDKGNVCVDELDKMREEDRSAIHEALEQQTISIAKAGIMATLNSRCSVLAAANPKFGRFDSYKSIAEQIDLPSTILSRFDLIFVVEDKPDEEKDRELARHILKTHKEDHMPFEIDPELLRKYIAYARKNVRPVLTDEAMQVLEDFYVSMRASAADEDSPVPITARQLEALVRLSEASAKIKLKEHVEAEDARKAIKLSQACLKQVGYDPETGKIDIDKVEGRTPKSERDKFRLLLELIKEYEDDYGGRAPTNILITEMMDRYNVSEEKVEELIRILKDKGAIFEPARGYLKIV
# MCM beta-finger mutant = target: T3, MCM beta-finger mutant (Methanothermobacter thermautotrophicus, UniProt O27798 1-666, R227A;K229A); test: fluorescence anisotropy
# T3 sequence: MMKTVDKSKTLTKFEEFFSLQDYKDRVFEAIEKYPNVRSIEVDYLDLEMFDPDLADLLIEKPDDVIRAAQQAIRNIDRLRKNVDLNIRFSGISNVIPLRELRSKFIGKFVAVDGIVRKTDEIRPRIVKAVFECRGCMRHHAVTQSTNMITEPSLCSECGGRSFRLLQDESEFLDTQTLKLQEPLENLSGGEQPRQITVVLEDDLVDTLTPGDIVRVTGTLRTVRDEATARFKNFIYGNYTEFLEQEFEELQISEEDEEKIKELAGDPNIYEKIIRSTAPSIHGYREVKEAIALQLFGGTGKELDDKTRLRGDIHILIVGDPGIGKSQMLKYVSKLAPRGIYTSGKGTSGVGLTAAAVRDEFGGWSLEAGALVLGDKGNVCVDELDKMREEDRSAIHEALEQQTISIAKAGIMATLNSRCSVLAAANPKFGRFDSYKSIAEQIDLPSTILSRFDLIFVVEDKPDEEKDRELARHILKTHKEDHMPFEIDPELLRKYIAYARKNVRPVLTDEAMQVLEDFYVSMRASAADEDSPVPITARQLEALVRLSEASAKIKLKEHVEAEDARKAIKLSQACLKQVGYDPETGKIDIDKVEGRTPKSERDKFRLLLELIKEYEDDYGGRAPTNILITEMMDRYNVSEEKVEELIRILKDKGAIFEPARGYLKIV
# M. thermautotrophicus MCM (MTH1770), sequence (O27798 1-666): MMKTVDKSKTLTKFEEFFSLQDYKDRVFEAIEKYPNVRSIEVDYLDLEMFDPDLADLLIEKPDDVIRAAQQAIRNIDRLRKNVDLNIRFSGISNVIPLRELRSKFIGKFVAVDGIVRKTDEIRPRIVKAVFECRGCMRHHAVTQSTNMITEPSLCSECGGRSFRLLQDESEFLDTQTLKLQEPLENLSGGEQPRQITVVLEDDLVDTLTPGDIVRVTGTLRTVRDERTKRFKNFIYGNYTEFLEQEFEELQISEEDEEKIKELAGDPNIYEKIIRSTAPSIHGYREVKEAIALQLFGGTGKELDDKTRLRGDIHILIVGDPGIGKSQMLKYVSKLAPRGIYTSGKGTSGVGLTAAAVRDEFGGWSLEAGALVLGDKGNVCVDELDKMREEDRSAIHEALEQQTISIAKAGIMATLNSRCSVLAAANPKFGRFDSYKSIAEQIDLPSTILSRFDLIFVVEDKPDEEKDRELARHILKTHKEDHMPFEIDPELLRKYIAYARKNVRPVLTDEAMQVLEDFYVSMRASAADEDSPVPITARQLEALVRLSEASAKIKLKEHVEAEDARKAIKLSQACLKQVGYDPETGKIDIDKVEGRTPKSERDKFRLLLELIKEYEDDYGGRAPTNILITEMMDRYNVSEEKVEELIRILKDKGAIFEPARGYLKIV
Molecule,% ATP cross-linked relative to wild type [1],binding result (MCM E182R),binding result (MCM P193G),binding result (MCM beta-finger mutant)
Nc1ncnc2c1ncn2[C@@H]1O[C@H](COP(=O)(O)OP(=O)(O)OP(=O)(O)O)[C@@H](O)[C@H]1O [ATP],UV crosslinking of ATP to the various MCM proteins was performed,–,–,–
CGCAGATAACAGTTGTCCTGGAGAACGACCTGGTTGACACCCTCACACCC (ssDNA) [50-mer Cy3-ssDNA],–,binds,binds,no binding
